Source: US20240207421A1, “NERVE TARGETING PEPTIDES AND METHODS OF USE” (ALUME BIOSCIENCES, INC., priority 2020, published 2024)

biological target: Human Myelin Basic Protein (Homo sapiens, UniProt P02686); assay: Phage display library screening (Example 2, Python script analysis), binding to Human Myelin Basic Protein; parameters: Enzo 200-606-M001 from human; purchased Enzo 200-606-M001; host or cells: human brain (tissue-derived); details: R3 Myelin Basic Protein; combined unique sequence count, Python/R script analysis
Sequence (P02686 134-304): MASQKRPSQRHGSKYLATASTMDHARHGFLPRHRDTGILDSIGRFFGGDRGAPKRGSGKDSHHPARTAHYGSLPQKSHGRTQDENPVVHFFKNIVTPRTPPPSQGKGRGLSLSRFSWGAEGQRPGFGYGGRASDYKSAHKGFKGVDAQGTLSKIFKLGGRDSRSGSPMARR
Procedure: Phage display library screens were used to identify peptides that bind to target proteins (including specific laminin trimers) that are expressed in human nerves, as described in Table 3. These screens were also carried out to identify peptides that could bind selectively to nerves versus muscle. Such peptides could therefore be useful for systemic in-vivo labeling of nerves during fluorescence assisted surgery. Specifically, m 13 phage libraries expressing 7 or 12 random amino acid peptides, or a cyclic peptide CX7C, on the N-terminus of the minor coat protein pIII (New England Biolabs; NEB) were processed through multiple rounds of selection for binding to target proteins expressed in nerves, or to excised human nerves, nerve extracts, or muscle, as described further below.
For screening against the specified target proteins in Table 1, including LN211, LN411, LN421, and LN521, the phage library was processed by up to 4 binding and wash cycles. For selection, phage libraries were incubated for up to 24 hours at 4° C. in 96 well plates that had been coated with one of the target proteins. Plates were then washed with PBS and phage were eluted using 0.2M glycine pH 2.0. Phage supernatants where then neutralized with Tris pH 9.0 prior to plating on TGI bacteria and LB agar plates. Colonies were counted to determine titer followed by DNA preparation of pools of phage and NextGen sequencing. After rounds of selection, phage were pooled and amplified for iterative selection. Phage that were bound at each round were sequenced. NextGen sequencing of pools after 2, 3 and 4 rounds of selection was used to isolate candidate sequences that were analyzed further to identify those that specifically bound each unique target protein.
Python Script Analysis: For all NEB sequence datasets, a python script was used to translate, trim, and filter the peptide sequences. The script translated the nucleotide sequences, translating amber codons as glutamine in peptide sequences, and then trimmed the end sequences that come from the vector. Secondly, the script combined the unique counts of trimmed peptides with identical sequences. […] Another python script was used to group peptides from different assays according to protein target (Myelin Protein Zero, Myelin Proteolipid Protein, Myelin Basic Protein, and Nidogen-2) and also combine the unique sequence counts for each peptide. An R script was written to merge the peptide sequences from different data files and determine peptides specific for each protein target but absent from different protein binding datasets. Peptide sequences were ranked by unique sequence count.

Substance | Count
VIRTAAM (R3 Myelin Basic Protein-binding peptide) | 6
IPYSQMP (R3 Myelin Basic Protein-binding peptide) | 6
LTKSLNH (R3 Myelin Basic Protein-binding peptide) | 7
SPPRFIP (R3 Myelin Basic Protein-binding peptide) | 8
THKHMMT (R3 Myelin Basic Protein-binding peptide) | 6
VAHQRVS (R3 Myelin Basic Protein-binding peptide) | 8
SSFYVAY (R3 Myelin Basic Protein-binding peptide) | 6
IPIPYRT (R3 Myelin Basic Protein-binding peptide) | 6
HLLKTHS (R3 Myelin Basic Protein-binding peptide) | 7
SPKPDIP (R3 Myelin Basic Protein-binding peptide) | 6
KNSIAPR (R3 Myelin Basic Protein-binding peptide) | 8
SLWTHRT (R3 Myelin Basic Protein-binding peptide) | 6
WPDLRIL (R3 Myelin Basic Protein-binding peptide) | 7
TSPPLAH (R3 Myelin Basic Protein-binding peptide) | 8
SNAERWR (R3 Myelin Basic Protein-binding peptide) | 9
DVVKDVI (R3 Myelin Basic Protein-binding peptide) | 7
GPRVTPH (R3 Myelin Basic Protein-binding peptide) | 6
SNAHTLP (R3 Myelin Basic Protein-binding peptide) | 6
SEGLTLL (R3 Myelin Basic Protein-binding peptide) | 6
MNSPLAQ (R3 Myelin Basic Protein-binding peptide) | 6
HPWLGNR (R3 Myelin Basic Protein-binding peptide) | 9
FLNQAPT (R3 Myelin Basic Protein-binding peptide) | 7

Substance | Count
LITHPQL (R3 Myelin Basic Protein-binding peptide) | 6
AGSLLSL (R3 Myelin Basic Protein-binding peptide) | 6
ALRDTRV (R3 Myelin Basic Protein-binding peptide) | 6
ESKSPRE (R3 Myelin Basic Protein-binding peptide) | 6
HRTHLHQ (R3 Myelin Basic Protein-binding peptide) | 6
NLTYLRF (R3 Myelin Basic Protein-binding peptide) | 6
KVHHLAR (R3 Myelin Basic Protein-binding peptide) | 6
AAGQRSF (R3 Myelin Basic Protein-binding peptide) | 7
TPVRLNT (R3 Myelin Basic Protein-binding peptide) | 6
CNRVPFKQC (R3 Myelin Basic Protein-binding peptide) | 7
TQMTMDS (R3 Myelin Basic Protein-binding peptide) | 10
VVDMSTY (R3 Myelin Basic Protein-binding peptide) | 7
TIRVAHT (R3 Myelin Basic Protein-binding peptide) | 6
SVGLPTK (R3 Myelin Basic Protein-binding peptide) | 6
FQLSYET (R3 Myelin Basic Protein-binding peptide) | 6
KIITTKS (R3 Myelin Basic Protein-binding peptide) | 6
GRHTDVV (R3 Myelin Basic Protein-binding peptide) | 6
ASNTSKG (R3 Myelin Basic Protein-binding peptide) | 7
YVNRVKQ (R3 Myelin Basic Protein-binding peptide) | 6
YLPPPLP (R3 Myelin Basic Protein-binding peptide) | 7
VLSPYHN (R3 Myelin Basic Protein-binding peptide) | 6
WDLRHSK (R3 Myelin Basic Protein-binding peptide) | 6

Substance | Count
VGTFWTR (R3 Myelin Basic Protein-binding peptide) | 6
RVIPSTT (R3 Myelin Basic Protein-binding peptide) | 6
AILTRPP (R3 Myelin Basic Protein-binding peptide) | 7
TSRLVST (R3 Myelin Basic Protein-binding peptide) | 8
ANLSRSV (R3 Myelin Basic Protein-binding peptide) | 9
TTTQGHP (R3 Myelin Basic Protein-binding peptide) | 6
NLKLWTR (R3 Myelin Basic Protein-binding peptide) | 7
GQWWKML (R3 Myelin Basic Protein-binding peptide) | 6
AIPPRKL (R3 Myelin Basic Protein-binding peptide) | 6
KGQPLFR (R3 Myelin Basic Protein-binding peptide) | 7
INFPFAV (R3 Myelin Basic Protein-binding peptide) | 6
SYVTVFR (R3 Myelin Basic Protein-binding peptide) | 6
GSPYGWG (R3 Myelin Basic Protein-binding peptide) | 6
FDLLARK (R3 Myelin Basic Protein-binding peptide) | 6
AQLGAFR (R3 Myelin Basic Protein-binding peptide) | 6
HQMRTML (R3 Myelin Basic Protein-binding peptide) | 6
SISKIRT (R3 Myelin Basic Protein-binding peptide) | 7
WTYHPTT (R3 Myelin Basic Protein-binding peptide) | 6
AKFTMWV (R3 Myelin Basic Protein-binding peptide) | 6
NTSLSFK (R3 Myelin Basic Protein-binding peptide) | 8
ESPYPHS (R3 Myelin Basic Protein-binding peptide) | 7
HPWSHPN (R3 Myelin Basic Protein-binding peptide) | 6

Substance | Count
DSQEKSV (R3 Myelin Basic Protein-binding peptide) | 6
GHSHYILGKPTA (R3 Myelin Basic Protein-binding peptide) | 7
MDLSLKP (R3 Myelin Basic Protein-binding peptide) | 10
YTASPRW (R3 Myelin Basic Protein-binding peptide) | 6
MPSLKHQ (R3 Myelin Basic Protein-binding peptide) | 8
NFAQHMQ (R3 Myelin Basic Protein-binding peptide) | 9
WSLPLLS (R3 Myelin Basic Protein-binding peptide) | 7
SIAEVLGLWRNV (R3 Myelin Basic Protein-binding peptide) | 7
WVPDRSL (R3 Myelin Basic Protein-binding peptide) | 6
HAHWARL (R3 Myelin Basic Protein-binding peptide) | 6
HFTFFPI (R3 Myelin Basic Protein-binding peptide) | 6
DVRIWTL (R3 Myelin Basic Protein-binding peptide) | 6
SSGMLSK (R3 Myelin Basic Protein-binding peptide) | 7
CTMTNQYDC (R3 Myelin Basic Protein-binding peptide) | 6
VRGTPNH (R3 Myelin Basic Protein-binding peptide) | 6
HFLRPSD (R3 Myelin Basic Protein-binding peptide) | 7
QGTLFDT (R3 Myelin Basic Protein-binding peptide) | 7
TGPSSAV (R3 Myelin Basic Protein-binding peptide) | 6
RSRKHRP (R3 Myelin Basic Protein-binding peptide) | 6
SRPTRVP (R3 Myelin Basic Protein-binding peptide) | 9
